# Results from the DeepSol protein solubility set.
# Assay: soluble on expression in E. coli; label from the status in PepcDB or PDB records
row,Sequence,soluble on expression in E. coli
1,MAHHHHHHMGQAFMEDQGNSLVVWGSTGRRLQFSMQDLKMPASLRDTPHFHFYEKQWDAVASFWFNRVLKESALQHLSVEAIVELIRQDISKRWERRREEQSIYKKRKRLLQRSGPAGTPSASVLLTNVTTLDGYQAATEMEQRDLVTALVERVEDVANDKVESWQVLVDDASEQRPAKAARVEGTAATSGEHPENDADGASDFDDRVAVVLKLSSKEKAATTIAHLHGSRFDDRRVLCRFWSE,soluble
2,MAHHHHHHMGTLEAQTQGPGSMIGITQAEAVLTIELQRPERRNALNSQLVEELTQAIRKAGDGSARAIVLTGQGTAFCAGADLSGDAFAADYPDRLIELHKAMDASPMPVVGAINGPAIGAGLQLAMQCDLRVVAPDAFFQFPTSKYGLALDNWSIRRLSSLVGHGRARAMLLSAEKLTAEIALHTGMANRIGTLADAQAWAAEIARLAPLAIQHAKRVLNDDGAIEEAWPAHKELFDKAWGSQDVIEAQVARMEKRPPKFQGA,soluble
3,MAHHHHHHMGTLEAQTQGPGSMKGEPKVIERLNEALFLELGAVNQYWLHYRLLNDWGYTRLAKKEREESIEEMHHADKLIDRIIFLEGFPNLQTVSPLRIGQNVKEVLEADLKGEYDARASYKESREICDKLGDYVSKQLFDELLADEEGHIDFLETQLDLLAKIGGERYGQLNAAPADEAE,soluble
4,MAHHHHHHMGTLEAQTQGPGSMNAAVIDSHSAQDYVVADIALAGWGRKELNIAETEMPGLVQIRDEYKAQQPLKGARIAGSLHMTIQTGVLIETLKALGADVRWASCNIFSTQDHAAAAIVEAGTPVFAFKGESLDEYWEFSHRIFEWPNGEFANMILDDGGDATLLLILGSKAEKDRSVIARPTNEEEVALFKSIERHLEIDGSWYSKRLAHIKGVTEETTTGVHRLYQMEKDGRLPFPAFNVNDSVTKSKFDNLYGCRESLVDGIKRATDVMIAGKIAVVAGYGDVGKGCAQSLRGLGATVWVTEIDPICALQAAMEGYRVVTMEYAADKADIFVTATGNYHVINHDHMKAMRHNAIVCNIGHFDSEIDVASTRQYQWENIKPQVDHIIFPDGKRVILLAEGRLVNLGCATGHPSFVMSNSFTNQTLAQIELFTRGGEYANKVYVLPKHLDEKVARLHLARIGAQLSELSDDQAAYIGVSKAGPFKPDHYRY,soluble
5,MAHHHHHHMGTLEAQTQGPGSMNLDNVTGGDNVPKEINVIIEISQNSCPVKYEFDKEKNLFCVDRFLPTSMYYPCNYGFIPHTCAGDGDPVDVLVASRFPVMSGAVIRARPVGVLVMHDESGEDVKILAVPTHKVDQYYNNIKDYSDFPVSFLNSISHFFTFYKKLEEDKFVSVEGWKDVTVAEKLILSALIK,soluble
6,MAHHHHHHMGTLEAQTQGPGSMQKNMVETEPVQGCRDFPPEAMRCRRHLFDVFHATAKTFGFEEYDAPVLESEELYIRKAGEEITEQMFNFITKGGHRVALRPEMTPSLARLLLGKGRSLLLPAKWYSIPQCWRYEAITRGRRREHYQWNMDIVGVKSVSAEVELVCAACWAMRSLGLSSKDVGIKVNSRKVLQTVVEQAGVTSDKFAPVCVIVDKMEKIPREEVEAQLAVLGLEPTVVDAITTTLSLKSIDEIAQRVGEEHEAVKELRQFFEQVEAYGYGDWVLFDASVVRGLAYYTGIVFEGFDREGKFRALCGGGRYDNLLTTYGSPTPIPCAGFGFGDCVIVELLQEKRLLPDIPHVVDDVVIPFDESMRPHALAVLRRLRDAGRSADIILDKKKVVQAFNYADRVGAVRAVLVAPEEWERGEVQVKMLREGTGKEEGGAERGFAVPLDRLV,soluble
7,MAHHHHHHMGTTASTDSADSPFSVRSVDSSGGGGWRQEDPERFRKYMHLKSQADQWRQRHGHTPGATRGELTKNLIEEVYEEDFESVDHVQSMRLPPMVLKEMKDAVANEAERRCAETEKVMARCLQDKMWTSWKCQKERDALYQCVADRKEDNELLMAYRWKYNLGTFHGELIGRNNMMRRIWKEHFPDRDLPHPWVKDA,not soluble
8,MAHHHHHHMGYGGPRVEFYTANQYSNFAAAIDRENAARVRSILHRRNLPAEQEAQRQREAAFRAYERAQADEVARSHAEEAEALERRRVKDERAQRRLATKTRRRSLTAAEVASRRSRHACLCRLAEPRKYQEAMYGSGMIGGAMPHQSGRDGKLPTVGRNGAVYCAGVDRDRIVPSRPALEGTVPPWKGSYSTHHGPHKLDAQMAKEAAAYYCAHPAPQRSASEQDMRQQTLQSIAAEHSMAAQQDGADVGMADASGAKGRSSVADAVQWHRMGSDNVDDEAGSIFSHGSSNGPIAATGNMHLSTTSTKHSVQLHLSRYGGAMTAPRPWRPSKAASENLTLPELADRLVCIQMSKSVVR,not soluble
9,MAHHHHHHMHAVPKDDAEAPLSNTESRGRVALIDTSGYASDMNISAFVPQHAMKPYRVLAAMEIVRSLKIDAHCRTVVPPLVKVEELMAYHTDTYLANLGLHSCRSWLWNAETSKVFFSGDCPPVEGLMEHSIATASGTLMGAVLLNSGQVDVAVHWGGGMHHSKCGECSGFCYVNDIVLGILELLKCHDRVLYVDIDMHHGDGVDEAFCTSDRVFTLSLHKFGESFFPGTGHPRDVGYGRGRYYSMNLAVWDGITDFYYLGIFEHALHSIVRRYSPDAIVLQCGADSLAGDRLGLLNLSSFGHGQCVQAVRDLGIPMLALGGGGYTIRNVAKLWAYETSILTGHPLPPNTVLPVAEMPLSGWLFQDSPLLIVAQDRSNHVLPGLHCQRAYQMMTEQIDRHVPHIQPHPRLQKAFTAAEAADKQVEDGTTAVEDFK,not soluble
10,MAHHHHHHMHTLVNFYTKGSDPVHKATIMPRGMSLGVTWKIPISDKYSQKIRDVQSEIDILMGGLVSEEIIFGKNNVTTGCSSDLQRATHIAQSLVMNYGVGINEENISMFLQDKKNISEEMKIKIDKSIQRILLDSYNRAKKVLNQHIDELHRVASALVEYETLTSDEIKLAMQGKHDQIRKNRELKQKEFNLKDSRIS,soluble
11,MAHHHHHHMIEETSFSNLKWEHDLFSIGDLHGDMDAFLKILLNEKMIDKNYNVIRENVLIVITGDVLDPSYDDINILFFIEEYNEKGKALNSKILMVLGNHEVKNMCLEFNKVKKNVEKYQNRNDMFPKNEVIYNILVNKPFVLRVNEMVFSHAGVLPFYASYGIDYINKEGKNEIENNCKLLFNKRKRKEEFCIACDYGPTLNRYFSFVNDGVFKKWMVCSTLNKSLNLLSSRRMIVGHTVQKNKKINSFCDDKLLLTDTGISKWKNGVVSYVQYFKDGTFDVRYL,not soluble
12,MAHHHHHHMIIEKGEPLNKEIIDHVLDHVTEFPTPTMVSVGDGKADCIVLENFLTHEECDQLVAACEKVGYTFWLQKNHHDADGEATCDSGSKAVRVVDTIEANFPHLSAKLYERIARVVSLKPKCFSEDMPNAEELFERELAGTWVPHALSENLLFGRYHPGGHFMPHVDGATILDLNTRSFYTLLIYLNDCLHGGETFIFAGEQCNVMYLDEKENQYRGNATQRVGAVYPKKGSAAFFYYNLLHEGAPVLEGHKYICRADLLYHRTPTIFTSEADEKAFKAYQEARLAESHGDAERACQLFQRVRKLSKGVASIFQIE,soluble
13,MAHHHHHHMIVASSLEVRNYGEWVRQVRAERIIVNCPDEMDVKAMCAWMKRDETKEKQAECWKEVKKHMYLLGPIPRHVFDEEAFTERCGAVKFALQSINDVTVKECFPRGGESPWCSEDPSHKPVRVVREIYEGSVILFNAPMCDCLEERTLKRLPSVAE,not soluble
14,MAHHHHHHMKCVLVVHSGGERMQRSCDLPDGVSTQEQLRAFVRSQDLRLESLDFTFAASLVRLTAGAAEKKGEKVVLREDADVQQLLKTAKQQRATHVLTFEVTISMSSSSPRNLGSFLSAEYAVDKDLVTLHVFAPLACPSRGKNPSYQEKMFIIPTRCVLESLARAVEDTLSIKLTNSGMKLVLYTMPQQPNGDQVEILYDTSALELLRQHTSQSTPGSTHLRHPYANPENYV,not soluble
15,MAHHHHHHMKFTISTSIEDVLFKGGFRVKEMRLNDFLTVIFGGRSILRANRSVLLRDFFSDPTRYIHDAGVLNEIQATGAYARMEEAVRDEIIFEEDRSKLRDKGVINLLGWSEAAANVKTTVHNNNKNSLDAALEEARNPTTTSTPIYLEGCYESVYNAKWHHLVEVPGGEGTGMDVEEGEPPQS,not soluble
